The DeepSol protein solubility set

Assay: soluble on expression in E. coli; label from the status in PepcDB or PDB records

Soluble on expression in E. coli, not soluble:
MGSDKIHHHHHHMRQGAGLGYRRDLAEGFLQLRNNDRIQFMEIAPENWIKMGGFARYQFDKVAEKIPILIHGLSLSLGGQAPLDKELLSSIKAMIKQYNTPFFSDHLSFCECDGHLYDLLPMPFTDEAVKHTAARIREVQDFLEIQISVENTSYYLHSETSTMNEVEFLNAIVQEANCGIHLDVNNIYVNAVNHGLLDPHVFIDNVDLKRVNYIHIAGHDDEHAATEVQIQTSESFNKIKGDLRHLPPLLVDTHGENVKGTVWDLLEYTYARLSHMPPTLLERDFNFPPFEKLCKEVDIIHQLQQKYVKKRGLSWLKI, MGSDKIHHHHHHMRREKKKGSDDQMADENEEYLMETRFSAEHIGLKLLEKKIITEQQFEDALRRQKSRGGGLGDVLIELGYLTEERLNQLLNAFPSVPKTIEDTGLDASFLADLVLKHSLSLREFRLADMVRRVKLPLSIVDSIVETLQREKMLEVKGGDGLARATYRFSITGIGENRAAGLLEICRYVGPAPVSLSDYREKVLTQSIQRVVVNPLTLKNALSHLVINPDLLKALGPALTSGQTIFLYGPTGNGKSSIAEAIGNVLPGTIFVPYAVYVEGELITVFDPVNHVPAPSETEDGKMDHRWLQIRRPVIMTGGELTLRTLDLEFNPISKFYIAPLQMKANNGLFIIDDFGRQQIEPKMLLNRWIVPLEKRVDFLTLHTGMKFSIPFDQLVIFATNLKPMELADEAFLRRIRYKIFIDYPSKEDFEVIFRKACEMKNVAFDPKAFQFLQDIYEKLGIQRSANHPRDLLEHIIDQSRYYGQEPELTVEGVSAAWEQNFIKNF, MGSDKIHHHHHHMRRLLTGCLLSSARPLKSRLPLLMSSSLPSSAGKKPKQATLARFFTSMKNKPTEGTPSPKKSSKHMLEDRMDNVSGEEEYATKKLKQTAVTHTVAAPSSMGSNFSSIPSSAPSSGVADSPQQSQRLVGEVEDALSSNNNDHYSSNIPYSEVCEVFNKIEAISSRLEIIRICSDFFIKIMKQSSKNLIPTTYLFINRLGPDYEAGLELGLGENLLMKTISETCGKSMSQIKLKYKDIGDLGEIAMGARNVQPTMFKPKPLTVGEVFKNLRAIAKTQGKDSQLKKMKLIKRMLTACKGIEAKFLIRSLESKLRIGLAEKTVLISLSKALLLHDENREDSPDKDVPMDVLESAQQKIRDAFCQVPNYEIVINSCLEHGIMNLDKYCTLRPGIPLKPMLAKPTKAINEVLDRFQGETFTSEYKYDGERAQVHLLNDGTMRIYSRNGENMTERYPEINITDFIQDLDTTKNLILDCEAVAWDKDQGKILPFQVLSTRKRKDVELNDVKVKVCLFAFDILCYNDERLINKSLKERREYLTKVTKVVPGEFQYATQITTNNLDELQKFLDESVNHSCEGLMVKMLEGPESHYEPSKRSRNWLKLKKDYLEGVGDSLDLCVLGAYYGRGKRTGTYGGFLLGCYNQDTGEFETCCKIGTGFSDEMLQLLHDRLTPTIIDGPKATFVFDSSAEPDVWFEPTTLFEVLTADLSLSPIYKAGSATFDKGVSLRFPRFLRIREDKGVEDATSSDQIVELYENQSHMQN, MGSDKIHHHHHHMRTPTCDITTHERWFGAFTAPYLEEGPEHVGPVRLKIEHTHHVLSNARSIVDSEDFSPLVQRAALLAALYHDTGRFPQYRRWRTFSDPRSVNHALLGGRTLREAGALDDEPVEVRRLVLGAVVMHNRFRVPSGIPDDARTVTDVVRDADKLDIFRVMAPHLAPGAERDKVVVLHVEDAPGKWSPVIVADVLAGRVASYADLRYVNDFRLLLGTWVRDLRFPASRRMLAASGLVENILSALPASDDIARARTRILSDLADAARGRGGA, MGSDKIHHHHHHMRVAPAYGKIALLISVSFSHGRHSVQDKNFDALAGKFAKNIYGTPKGEVRAAVLWRDISQAMTQLPEGPLRILDAGGGFGFFSQKLAKLGHSVTLCDISSEMLALGQAQITEYENNSGEKLDITLLHAPIQSLTREELGQFDLILCHAVAEWLSDAKQTLAGLTQLLKPQGLFSLMFYNKEAMRFHSLISGNFDYVAADFKVKKKVGLTPSYPLYIDDVRGWVSDWQMELVTASGVRVIHDYLKTHQPPNSDFSQLLEMELQYSTHPAYIGLGRYVHFITRWQR, MGSDKIHHHHHHMRVILAQPRGFCAGVVRAIEIVDRALQQHGAPVYVRHEIVHNRHVVDNLRQKGARFVEELDEVPQGAVAIFSAHGVAQTVERDAEARGLDVLDATCPLVTKVHVQGRQYVGAGRTLILIGHAGHPEVEGTVGQIPGKVLLVQSEAEVENLDLPLDTPLAYVTQTTLSVDDTRGIIDALLSRFTDIVGPDTRDICYATQNRQAAVRELSKQVDVLLVVGATNSSNSNRLREIGSESGVASYLVADGSEVKPEWFANVQTVGITAGASAPEEMVKNVIDALSALGPVDVTTMAGREEKVEFKLPSKLMQPLAAREV, MGSDKIHHHHHHMRVITVAGPPSVGKTSVVVKTATTLAAQGHRLGIVKFDSLSTSDDQVYRRAGLPVVVGLSGNVCPDHFFVSNIDDCVDWGRTHGVDILVAESAGLCNRCSPHVQGVQAICVVDNLSGVHTPRKIGPMLKLADVVVITKGDIVSQAEREVFAYNVRLANPRAQVMQFHGITGQGASDLAARMLCAPVVDALEGRRLRFSMPSAVCPYCIGETAIGVDHQRGNVRKMSFAEPAR, MGSDKIHHHHHHMRVPPHNLEAEVAVLGSILIDPSVINDVLEILSHEDFYLKKHQHIFRAMEELYDEGKPVDVVSVCDKLQSMGKLEEVGGDLEVAQLAEAVPSSAHALHYAEIVKEKSILRKLIEISRKISESAYMEEDVEILLDNAEKMIFEISEMKTTKSYDHLRGIMHRVFENLENFRERANLIEPGVLITGLPTGFKSLDKQTTGFHSSDLVIIAARPSMGKTSFALSIARNMAVNFEIPVGIFSLEMSKEQLAQRLLSMESGVDLYSIRTGYLDQEKWERLTIAASKLYKAPIVVDDESLLDPRSLRAKARRMKKEYDVKAIFVDYLQLMHLKGRKESRQQEISEISRSLKLLARELDIVVIALSQLSRAVEQREDKRPRLSDLRESGAIEQDADTVIFIYREEYYRSKKSKEESKLHEPHEAEIIIGKQRNGPVGTITLIFDPRTVTFHEVDVVHS, MGSDKIHHHHHHMRYPEGMALQNKFPILWDCFLQRINDALKATTQEELGRRLGVGKSAITKWRHGSTRGADLQDFLRYCDVLGIDFCGIINGTPTPTYSPSPFEIALTGVLDSFLSVHNLTHEKAASSLWPETANGAAKLGSILTAKEPLTPEVLMQLCLLMEEDPGKLLRLARERVQPEGEQISGNAKSA, MGSDKIHHHHHHMRYRPVIGLEIHVQLSTKTKAFCSCPADVFELPPNTAICPVCTGQPGALPVPNEEMIRFAVKTALALNCKIHKYSRFDRKNYFYPDLPKGYQISQYFYPIATEGFLEIDGDEGRKKVRIRRLHLEEDAGKLVHEGDSITRASYSLVDMNRCGVPLIEIVTEPDISSPREARVFMEKLRSIVRYLGVSTGDMEKGALRCDANISVVDTETGRQSNRVEVKNMNSFRFVERALEYEFERIVKAMERGEDVERETRGWDMATKITVSMRGKEEESDYRYFPEPDIPPVVLSDEYLEEVKKELPELPDEKAERFMREYGLPEYDAKVLTSSKELAEFFEECVKVVNRPKDLSNWIMTEVLRELNERNIEITESKLTPQHFADLFKLMDEGKISIKIAKEIFPEVFETGKMPSQIVEEKGLTQINDEKLIEELVKKAMEQNPKAVQDYKSGKKKAAGFFVGYVMRETKGKANPELTNRIIQKLLEGE, MGSDKIHHHHHHMRYVKLHSEYFPEFFNRLKEVGRVYGPVRHNSTYRFEEVNSIDELSLDYTRTILPPKKFFIRPRDAMFKIQKNEVTEVDGDGKFVLFGVHSCDIHGIKILDKVYLSNPPDPYYERRRKNAFIVGISCMPDEYCFCKSLGTDFAMDGFDIFLHELPDGWLVRVGSVKGHEFVWENQDIFDDVTEEDLRNFKEFEEKRAKAFKKSLNKEGLADILDLAFTSKVWKKYAEKCLGCGNCTIVCPTCRCYEVCDTWVRAYEALRMRRYDSCFMPTHGLVAGGHNFRPTRLDRFRHRYYCKNYFDPEAGFNCVGCGRCDEFCPARIEHVKVLDEVREGLI, MGSDKIHHHHHHMSATEKRRYEVLRAIVADYIASQEPVGSKSLLERHKLNVSSATIRNDMSVLESDGFIVQEHASSGRVPTERGYRLFVDSIHDIKPLSLAERRAILGFLEGGVDLEDVLRRSVQLLSQLTHQAAVVQLPTLKTARVKHCEVVPLSPMRLLLVLITDTGRVDQRNVELEEPLAAEEVNVLRDLLNGALGEKTLTAASDALEELAQQAPTDIRDAMRRCCDVLVNTLVDQPSDRLILAGTSNLTRLSRETSASLPMVLEALEEQVVMLKLLSNVTDLDQVRVHIGGENEDIELRSATVITTGYGSQGSALGGLGVVGPTYMDYSGTISKVSAVAKYVGRVLAGE, MGSDKIHHHHHHMSCIDCAVKNCNKMDKTYPDFCLTTHMDEEVLNEAMECYNEDENRKVTIAAAEVEYENYCKHTRVEEIMDFAKKINAKKIGIATCVGLLKESRILADILRRHGFEVYGVGCKAGTQKKTSVGIPECCEGVGVNMCNPILQAKLLNKAKTDLNVVVGLCVGHDSLFYKYSEALTTTAVTKDRVLGHNPVAALYTADSYYSKLKKSEEE, MGSDKIHHHHHHMSDDLGSELQLLYLFVHLVNAGSFSQAAKELDMPIATVSRKLAKLEEKLDKQLFMRSTRKLRLTEEGLALFQRYQSVIAQFDELSGVGSDKPEGTLRIAAPISIISIIFIRALNEFGRLYPDIRLHISQSNELVDLIDKGIDVAIVGGAQPDSSWVSSTLGELDYCLFATPEYLAQAPKLTHPNDLEAHQLIKVWPLFNWHLKHPNGESFYFNGPTKLTLTDLHGAIESALDHGGILYGPELFVKQQIKEDRLKVLLPEWVGEQRRISILYHQRSQQPLKVRVFIEFMQSKAPELFSMA, MGSDKIHHHHHHMSDFFIETTKADKVLPTNSRPKFFAFGIPSYTNLGDQAVSLAQRKYIENEFPEYQYIEILEDDNDEGIEAVKKIITSQDIVSFVGGGNMGSLYTNHEAARRKVFSTFVNNLTISFPQSIHFEDTPSGLKEQKLSQEAYGKNRHLFLIARDAQSYHRMQTTFDNQVLFTPDMVLYFKASHYDFKRSGALFVLRHDGEKVVGDSLIDSMKKMLDNNRPLKRTDTVLDTVKRITPINREKLFKEELELFAHQEIVITDRWHAMVFSVLTGTPCLLFGNSYGKGKHAYFDWLEHINWIAYTDEEDLDRIDQQIQRLIKTKEHAYDIRPDFKQLHDLIKLHSKK, MGSDKIHHHHHHMSDIDFAKKMSFQRHFSRPKTAESEYAIVRQFESDRGRIINSAAIRRLQQKTQVFPLERNAAVRSRLTHSMEVQQVGRYIAKEILHRLQADERLASLGLADRETPFESLVEMACLMHDIGNPPFGHFGESAINQWFRKLLDSHYLDNESPERVDDCKVPTLRMQQDGLDDLRGQIRQDLSHFEGNAQAIRLVHTLLKLNLTYGQVACILKYTRPAYWHGELPADYNYLMKKPGYYLSEEAFVAKLREELDMGEFHRHPLSYIMEAADDVSYCIADLEDAVEKDILTIEELYDRLRENWGTGAEKDIFAKTIERAYKERERFQWRSHDDQFFMNLRVYTVGQMVPHAALRFIDNLPEIYTGSFNQALLEDDSPQNRLLGIFKHVALKHVFNHHEVEQLELQGDRVIRGLLDIYSPLLDMPYQDFSQLVSADTHKRYPIETRLYHKLSSKHCLAYREAVTELDGVAEPERIIREYYYRARLIQDYISGMTDLYAYDEYRMLMAAD, MGSDKIHHHHHHMSDSKWKYNIIYNMEIEVLTGLHIGGSNEELKIGGTDSPVITTKYLINNVEPCDLPYIPGSSIKGKIRSLLENVDYKGKNGDDIVSKMFGYYPNAGEGIKRLTRLIIRDAFLDDGHIKSAEDARNVIEIKSENKIDPIESKATPRFIERVRRGTKFKGKIILSIYEGDNEEEMIKCLKTGISLLEDSYLGGNGTRGYGSVKITLGEPIKKGIDKYEENIKDNTSNGSEN
